Assay results as given in the supplement of paper PMC7877785.
± gives the uncertainty stated by the source.

Assay: self-splicing fitness, log relative to wild type (ln ratio); higher = more splicing; Tetrahymena group I intron in knt gene, E. coli kanamycin selection, DiMSum; sequences stand for … in CUCUCU…GGAGGGAAAAGUUAUCAGGCAUGCACCUGGUAGCUAGUCUUUAAACCAAUAGAUUGCAUCGGUUUAAAAGGCAAGACCGUCAAAUUGCGGGAAAGGGGUCAACAGCCGUUCAGUACCAAGUCUCAGGGGAAACUUUGAGAUGGCCUUGCAAAGGGUAUGGUAAUAAGCUGACGGACAUGGUCCUAACCACGCAGCCAAGUCCUAAGUCAACAGAUCUUCUGUUGAUAUGGAUGCAGUUCACAGACUAAAUGUCGGUCGGGGAAGAUGUAUUCUUCUCAUAAGAUAUAGUCGGACCUCUCCUUAAUGGGAGCUAGCGGAUGAAGUGAUGCAACACUGGAGCCGCUGGGAACUAAUUUGUAUGCGAAAGUAUAUUGAUUAGUUUUGGAGUACUCGUGGUCG
Method in brief: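 Pooled colonies went to amplicon sequencing on an Illumina HiSeq 2500 after six replicate transformations. The plates were LB agar with 100 μg/mL carbenicillin, 50 μM IPTG and 0.2% rhamnose, with or without 25 μg/mL kanamycin, incubated overnight at 37°C or 30°C. The E. coli BL21(DE3) library had all eight P1ex-region intron nucleotides randomised, the intron placed in the knt kanamycin-resistance gene on pET-22b(+). DiMSum fitness is the error-weighted combination of replicate fold changes, kanamycin against none, normalised to wild type.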

Sequence: UGUCAGCAAUAUUACGGCGA
- self-splicing fitness (ln) (30 °C): -0.34 ± 0.093
- self-splicing fitness (ln) (37 °C): -0.0234 ± 0.1

Sequence: UGUCAGCAAUAUUACGGCGC
- self-splicing fitness (ln) (30 °C): -2.76 ± 0.21
- self-splicing fitness (ln) (37 °C): -1.65 ± 0.19

Sequence: UGUCAGCAAUAUUACGGUGA
- self-splicing fitness (ln) (30 °C): -0.413 ± 0.094
- self-splicing fitness (ln) (37 °C): -0.355 ± 0.12

Sequence: UGUCAGCAAUAUUACGUACA
- self-splicing fitness (ln) (30 °C): -0.576 ± 0.11
- self-splicing fitness (ln) (37 °C): -0.0735 ± 0.13

Sequence: UGUCAGCAAUAUUACGUAUA
- self-splicing fitness (ln) (30 °C): -0.245 ± 0.067
- self-splicing fitness (ln) (37 °C): 0.374 ± 0.087

Sequence: UGUCAGCAAUAUUACGUCAA
- self-splicing fitness (ln) (30 °C): -0.787 ± 0.077
- self-splicing fitness (ln) (37 °C): -0.0175 ± 0.076

Sequence: UGUCAGCAAUAUUACGUGAU
- self-splicing fitness (ln) (30 °C): -2.85 ± 0.13
- self-splicing fitness (ln) (37 °C): -1.81 ± 0.14

Sequence: UGUCAGCAAUAUUACGUGUU
- self-splicing fitness (ln) (30 °C): -3.51 ± 0.15
- self-splicing fitness (ln) (37 °C): -1.23 ± 0.11

Sequence: UGUGAGCAAUAUUACGACAG
- self-splicing fitness (ln) (30 °C): -1.7 ± 0.1
- self-splicing fitness (ln) (37 °C): -1.59 ± 0.12

Sequence: UGUGAGCAAUAUUACGACAU
- self-splicing fitness (ln) (30 °C): -3.682 ± 0.033
- self-splicing fitness (ln) (37 °C): -2.45 ± 0.042

Sequence: UGUGAGCAAUAUUACGACGA
- self-splicing fitness (ln) (30 °C): -0.898 ± 0.14
- self-splicing fitness (ln) (37 °C): 0.278 ± 0.14

Sequence: UGUGAGCAAUAUUACGAGAG
- self-splicing fitness (ln) (30 °C): -3.57 ± 0.23
- self-splicing fitness (ln) (37 °C): -2.44 ± 0.22

Sequence: UGUGAGCAAUAUUACGAUUG
- self-splicing fitness (ln) (30 °C): -2.19 ± 0.26
- self-splicing fitness (ln) (37 °C): -0.226 ± 0.26

Sequence: UGUGAGCAAUAUUACGCAAU
- self-splicing fitness (ln) (30 °C): -4.42 ± 0.42
- self-splicing fitness (ln) (37 °C): -2.73 ± 0.31

Sequence: UGUGAGCAAUAUUACGCGAA
- self-splicing fitness (ln) (30 °C): -4.12 ± 0.29
- self-splicing fitness (ln) (37 °C): -2.54 ± 0.18

Sequence: UGUGAGCAAUAUUACGCUAU
- self-splicing fitness (ln) (37 °C): -1.9 ± 0.3

Sequence: UGUGAGCAAUAUUACGCUGG
- self-splicing fitness (ln) (30 °C): -2.49 ± 0.28
- self-splicing fitness (ln) (37 °C): -2.71 ± 0.37

Sequence: UGUGAGCAAUAUUACGGAGA
- self-splicing fitness (ln) (30 °C): -3.34 ± 0.28
- self-splicing fitness (ln) (37 °C): -2.29 ± 0.31

Sequence: UGUGAGCAAUAUUACGGCUA
- self-splicing fitness (ln) (30 °C): -0.645 ± 0.13
- self-splicing fitness (ln) (37 °C): -0.508 ± 0.15

Sequence: UGUGAGCAAUAUUACGGGGC
- self-splicing fitness (ln) (30 °C): -3.14 ± 0.39
- self-splicing fitness (ln) (37 °C): -2.25 ± 0.33

Sequence: UGUGAGCAAUAUUACGGUCA
- self-splicing fitness (ln) (30 °C): -0.959 ± 0.056
- self-splicing fitness (ln) (37 °C): -0.333 ± 0.069

Sequence: UGUGAGCAAUAUUACGGUUA
- self-splicing fitness (ln) (30 °C): -2.47 ± 0.2
- self-splicing fitness (ln) (37 °C): -0.332 ± 0.16

Sequence: UGUGAGCAAUAUUACGUAGU
- self-splicing fitness (ln) (30 °C): -2.87 ± 0.24
- self-splicing fitness (ln) (37 °C): -3.06 ± 0.35

Sequence: UGUGAGCAAUAUUACGUAUU
- self-splicing fitness (ln) (30 °C): -3.12 ± 0.16
- self-splicing fitness (ln) (37 °C): -2.63 ± 0.26

Sequence: UGUGAGCAAUAUUACGUUAC
- self-splicing fitness (ln) (30 °C): -3.75 ± 0.37
- self-splicing fitness (ln) (37 °C): -2.6 ± 0.38

Sequence: UGUGAGCAAUAUUACGUUCG
- self-splicing fitness (ln) (30 °C): -3.41 ± 0.22
- self-splicing fitness (ln) (37 °C): -1.32 ± 0.15

Sequence: UGUUAGCAAUAUUACGAAAG
- self-splicing fitness (ln) (30 °C): -2.64 ± 0.14
- self-splicing fitness (ln) (37 °C): -2.73 ± 0.25

Sequence: UGUUAGCAAUAUUACGACGC
- self-splicing fitness (ln) (30 °C): -1.59 ± 0.2
- self-splicing fitness (ln) (37 °C): -1.47 ± 0.32

Sequence: UGUUAGCAAUAUUACGAGAG
- self-splicing fitness (ln) (30 °C): -3.33 ± 0.33
- self-splicing fitness (ln) (37 °C): -3.15 ± 0.27

Sequence: UGUUAGCAAUAUUACGAGUG
- self-splicing fitness (ln) (30 °C): -0.0674 ± 0.16
- self-splicing fitness (ln) (37 °C): -0.336 ± 0.18

Sequence: UGUUAGCAAUAUUACGAUCC
- self-splicing fitness (ln) (30 °C): -0.915 ± 0.34

Sequence: UGUUAGCAAUAUUACGAUUA
- self-splicing fitness (ln) (30 °C): -0.127 ± 0.093
- self-splicing fitness (ln) (37 °C): 0.424 ± 0.11

Sequence: UGUUAGCAAUAUUACGCACG
- self-splicing fitness (ln) (30 °C): -0.922 ± 0.11
- self-splicing fitness (ln) (37 °C): -0.377 ± 0.12

Sequence: UGUUAGCAAUAUUACGCAGG
- self-splicing fitness (ln) (30 °C): -3.96 ± 0.35
- self-splicing fitness (ln) (37 °C): -2.96 ± 0.25

Sequence: UGUUAGCAAUAUUACGCCGC
- self-splicing fitness (ln) (30 °C): -3.34 ± 0.45

Sequence: UGUUAGCAAUAUUACGCGAC
- self-splicing fitness (ln) (30 °C): -3.75 ± 0.4
- self-splicing fitness (ln) (37 °C): -1.59 ± 0.5

Sequence: UGUUAGCAAUAUUACGCGUG
- self-splicing fitness (ln) (30 °C): -0.492 ± 0.11
- self-splicing fitness (ln) (37 °C): -0.61 ± 0.099

Sequence: UGUUAGCAAUAUUACGCUAU
- self-splicing fitness (ln) (30 °C): -3.53 ± 0.49
- self-splicing fitness (ln) (37 °C): -1.29 ± 0.32
